Assay results from patent publication US20140179604A1 (U S A REPRESENTED BY THE DEPARTMENT OF VETERANS AFFAIRS, published 2014).
Like-named read-outs stand apart in the source and are kept apart here. One block for each molecule: values may come before it. Non-standard residues stand in square brackets, D forms with d. No end group written: not given here. *: point of attachment. Desaminotyrosyl = O=C(CCc1ccc(O)cc1)*; NMeY = CN[C@@H](Cc1ccc(O)cc1)C(=O)O; Agmatine = N=C(N)NCCCCN*; Nle = CCCC[C@H](N)C(=O)O; Orn = NCCC[C@H](N)C(=O)O; Abu = CC[C@H](N)C(=O)O

Tests used:
[1] = target: T1, GHRH receptor (membrane receptors of human anterior pituitary cells) (human) (UniProt Q02643); experiment: competition with [His1,125I-Tyr10,Nle27]hGHRH(1-32)NH2, human pituitary membranes
T1 sequence (looked up): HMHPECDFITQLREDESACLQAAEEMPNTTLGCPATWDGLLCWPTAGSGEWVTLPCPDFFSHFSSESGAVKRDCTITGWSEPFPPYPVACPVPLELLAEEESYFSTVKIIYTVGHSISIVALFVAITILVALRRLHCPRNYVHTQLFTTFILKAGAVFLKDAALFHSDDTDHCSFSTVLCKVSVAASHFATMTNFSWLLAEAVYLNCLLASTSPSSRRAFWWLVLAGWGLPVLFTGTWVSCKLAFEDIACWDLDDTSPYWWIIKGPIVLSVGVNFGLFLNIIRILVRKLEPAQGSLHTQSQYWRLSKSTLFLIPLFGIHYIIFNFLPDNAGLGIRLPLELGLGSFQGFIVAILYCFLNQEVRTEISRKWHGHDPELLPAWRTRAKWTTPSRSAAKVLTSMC

[2] = target: T2, GHRH receptor (membrane receptors of human anterior pituitary cells) (human, UniProt Q02643 23-423); experiment: competition with 125I-JV-1-42, human pituitary membranes
T2 construct: whole, on cells; Native receptor in a membrane fraction of purchased normal human pituitaries, not intact cells; also called hGHRH receptor; human pituitary membrane homogenates
T2 sequence (looked up): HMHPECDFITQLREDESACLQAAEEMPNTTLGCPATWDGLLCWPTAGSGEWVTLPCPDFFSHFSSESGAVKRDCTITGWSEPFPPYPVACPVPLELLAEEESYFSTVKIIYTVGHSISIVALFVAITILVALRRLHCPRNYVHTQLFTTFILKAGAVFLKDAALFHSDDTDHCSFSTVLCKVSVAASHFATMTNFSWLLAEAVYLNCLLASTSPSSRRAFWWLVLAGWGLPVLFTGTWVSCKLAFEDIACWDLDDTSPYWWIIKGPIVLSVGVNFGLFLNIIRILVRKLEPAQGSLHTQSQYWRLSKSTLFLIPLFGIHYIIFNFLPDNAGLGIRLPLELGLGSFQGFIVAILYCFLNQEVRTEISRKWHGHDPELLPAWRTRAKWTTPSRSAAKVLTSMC
Procedure: (§1) Normal human pituitaries were purchased from the National Hormone and Peptide Program (A. F. Parlow, Los Angeles, County Harbor-UCLA Medical Center, Torrance, Calif.).
The final binding affinities were expressed as IC₅₀ values and were calculated by using the LIGAND PC computerized curve-fitting program of Munson and Rodbard as modified by McPherson.

[3] = target: T2, GHRH receptor (membrane receptors of …); experiment: competition with [His1,125I-Tyr10,Nle27]hGHRH(1-32)NH2, human pituitary membranes
Text: Normal human pituitaries were purchased from the National Hormone and Peptide Program (A. F. Parlow, Los Angeles, County Harbor—UCLA Medical Center, Torrance, Calif.).

[4] = target: T2, GHRH receptor (membrane receptors of …); experiment: competition with 125I-[His1,Nle27]hGHRH(1-32)NH2, human pituitary membranes
[5] = target: T2, GHRH receptor (membrane receptors of …); experiment: competition with 125I-JV-1-42, human pituitary membranes; remark: listed apart in the source
Text: as §1

[6] = target: T1, GHRH receptor (membrane receptors of human anterior pituitary cells) (human); experiment: as above
[7] = target: T1, GHRH receptor (membrane receptors of human anterior pituitary cells) (human); experiment: competition with 125I-[His1,Nle27]hGHRH(1-32)NH2, human pituitary membranes
[8] = target: T1, GHRH receptor (membrane receptors of human anterior pituitary cells) (human); experiment: competition with 125I-JV-1-42, human pituitary membranes; remark: listed apart in the source

IC50 [1]: 1.82 nM
Relative affinity (Binding potency) vs GHRH (GHRH(1-29) = 1) [1]: 3.25
Molecule: JI-36 (peptide)

IC50 [1]: 1.37 nM
Relative affinity (Binding potency) vs GHRH (GHRH(1-29) = 1) [1]: 4.32
Molecule: JI-34 (peptide)

IC50 [2]: 1.71 nM
Relative affinity (Binding potency) vs GHRH [2]: 2.4 GHRH(1-29) = 1
Relative affinity (Binding potency) vs JI-38 [2]: 1 JI-38 = 1
IC50 [3]: 1.95 nM
Relative affinity (Binding potency) vs GHRH [3]: 3.03 GHRH(1-29) = 1
Relative affinity (Binding potency) vs JI-38 [3]: 1 JI-38 = 1
IC50 [4]: 2.74 nM
Relative affinity (Binding potency) compared to JI-38 [4]: 1 JI-38 = 1
Relative affinity (Binding potency) compared to hGHRH(1-29) [4]: 2.79 hGHRH(1-29)NH2 = 1
IC50 [5]: 4.35 nM
Relative affinity (Binding potency) vs JI-38 [5]: 1 JI-38 = 1
B1: JI-38 [Dat^1, Gln^8, Orn^12,21, Abu^15, Nle^27, Asp^28, Agm^29]hGHRH(1-29)NH2 (peptide)
peptide: [Desaminotyrosyl]ADAIFTQSYR[Orn]VL[Abu]QLSAR[Orn]LLQDI[Nle]D[Agmatine]
SMILES: CCCC[C@H](NC(=O)[C@@H](NC(=O)[C@H](CC(=O)O)NC(=O)[C@H](CCC(N)=O)NC(=O)[C@H](CC(C)C)NC(=O)[C@H](CC(C)C)NC(=O)[C@H](CCCN)NC(=O)[C@H](CCCNC(=N)N)NC(=O)[C@H](C)NC(=O)[C@H](CO)NC(=O)[C@H](CC(C)C)NC(=O)[C@H](CCC(N)=O)NC(=O)[C@H](CC)NC(=O)[C@H](CC(C)C)NC(=O)[C@@H](NC(=O)[C@H](CCCN)NC(=O)[C@H](CCCNC(=N)N)NC(=O)[C@H](Cc1ccc(O)cc1)NC(=O)[C@H](CO)NC(=O)[C@H](CCC(N)=O)NC(=O)[C@@H](NC(=O)[C@H](Cc1ccccc1)NC(=O)[C@@H](NC(=O)[C@H](C)NC(=O)[C@H](CC(=O)O)NC(=O)[C@H](C)NC(=O)CCc1ccc(O)cc1)[C@@H](C)CC)[C@@H](C)O)C(C)C)[C@@H](C)CC)C(=O)N[C@@H](CC(=O)O)C(=O)NCCCCNC(=N)N
notes: Non-coded residues replacing another residue are written X

IC50 [6]: 0.01 nM
Relative affinity (Binding potency) vs GHRH (GHRH(1-29) = 1) [6]: 406
Relative affinity (Binding potency) vs JI-38 [6]: 171 JI-38 = 1
IC50 [7]: 1.02 nM
Relative affinity (Binding potency) compared to JI-38 [7]: 2.69 JI-38 = 1
Relative affinity (Binding potency) compared to hGHRH(1-29) (hGHRH(1-29)NH2 = 1) [7]: 7.5
IC50 [8]: 0.27 nM
Relative affinity (Binding potency) vs JI-38 [8]: 16.1 JI-38 = 1
B2: P-20356 [N-Me-Tyr^1, Gln^8, Orn^12, Abu^15, Orn^21, Nle^27, Asp^28, Agm^29]hGHRH(1-29)NH2 (peptide, from a related filing)
peptide: [NMeY]ADAIFTQSYR[Orn]VL[Abu]QLSAR[Orn]LLQDI[Nle]D[Agmatine]
modifications: not fully specified (C-terminus)
